Laboratory results published in patent US20170158747A1 (Novartis, published 2017).

How the values were obtained:
Assay in all cases: cell-based or functional assay
[1] = target: T1, human IL10 receptor (IL10R1/R2 receptor complex) on human whole blood cells (human, UniProt Q13651 22-578; Q08334 20-325)
T1 sequence (looked up) 1: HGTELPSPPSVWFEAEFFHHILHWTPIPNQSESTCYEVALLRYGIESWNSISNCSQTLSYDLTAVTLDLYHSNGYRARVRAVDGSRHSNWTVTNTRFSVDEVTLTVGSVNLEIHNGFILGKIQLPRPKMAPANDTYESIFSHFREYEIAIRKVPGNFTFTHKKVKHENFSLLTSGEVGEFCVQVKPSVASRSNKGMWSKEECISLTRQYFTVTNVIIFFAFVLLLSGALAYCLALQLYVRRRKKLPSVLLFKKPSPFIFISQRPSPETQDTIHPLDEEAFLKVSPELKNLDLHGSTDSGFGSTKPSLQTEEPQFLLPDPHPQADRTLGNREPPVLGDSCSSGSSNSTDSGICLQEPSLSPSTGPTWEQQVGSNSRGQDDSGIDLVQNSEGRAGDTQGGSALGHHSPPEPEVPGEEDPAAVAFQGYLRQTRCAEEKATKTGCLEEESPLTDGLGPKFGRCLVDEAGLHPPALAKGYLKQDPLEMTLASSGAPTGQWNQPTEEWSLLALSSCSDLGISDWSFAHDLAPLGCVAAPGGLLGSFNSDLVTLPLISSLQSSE
T1 sequence (looked up) 2: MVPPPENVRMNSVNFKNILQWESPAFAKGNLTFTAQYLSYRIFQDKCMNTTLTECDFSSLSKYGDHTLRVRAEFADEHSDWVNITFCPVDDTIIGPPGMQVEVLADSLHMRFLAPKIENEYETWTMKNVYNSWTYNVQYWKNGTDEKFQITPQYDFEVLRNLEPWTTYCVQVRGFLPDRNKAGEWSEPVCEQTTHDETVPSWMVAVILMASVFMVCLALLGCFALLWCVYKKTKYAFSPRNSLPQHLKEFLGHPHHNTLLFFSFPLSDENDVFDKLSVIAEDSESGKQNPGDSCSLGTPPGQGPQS

[2] = target: T2, cynomolgus monkey IL10 receptor on cynomolgus whole blood cells (cynomolgus monkey, UniProt A0A2K5WJ66 22-576; A0A7N9D6W2 20-323)
T2 sequence 1: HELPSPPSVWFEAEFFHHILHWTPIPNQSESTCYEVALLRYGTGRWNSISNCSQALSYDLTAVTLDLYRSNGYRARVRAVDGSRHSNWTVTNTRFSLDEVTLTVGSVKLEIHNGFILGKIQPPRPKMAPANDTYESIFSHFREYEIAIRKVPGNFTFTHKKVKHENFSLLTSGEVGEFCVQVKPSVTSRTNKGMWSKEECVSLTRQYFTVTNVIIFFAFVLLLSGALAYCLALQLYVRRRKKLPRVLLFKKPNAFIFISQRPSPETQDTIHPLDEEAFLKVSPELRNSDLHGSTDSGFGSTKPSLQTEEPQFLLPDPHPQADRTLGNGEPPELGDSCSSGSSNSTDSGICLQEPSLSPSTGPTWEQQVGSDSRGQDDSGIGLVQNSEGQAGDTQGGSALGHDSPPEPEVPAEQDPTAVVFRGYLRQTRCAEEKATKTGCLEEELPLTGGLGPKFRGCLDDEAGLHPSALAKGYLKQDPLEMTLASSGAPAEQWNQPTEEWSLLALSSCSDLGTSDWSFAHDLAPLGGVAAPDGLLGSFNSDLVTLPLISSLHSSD
T2 sequence 2: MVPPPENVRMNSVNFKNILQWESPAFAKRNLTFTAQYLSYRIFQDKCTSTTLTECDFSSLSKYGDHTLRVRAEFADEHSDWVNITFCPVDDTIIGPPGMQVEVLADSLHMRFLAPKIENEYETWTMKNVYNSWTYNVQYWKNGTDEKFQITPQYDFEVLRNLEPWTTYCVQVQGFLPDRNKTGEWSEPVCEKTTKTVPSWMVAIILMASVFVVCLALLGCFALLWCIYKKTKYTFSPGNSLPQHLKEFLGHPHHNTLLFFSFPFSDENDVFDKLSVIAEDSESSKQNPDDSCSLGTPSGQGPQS

[3] = target: T3, mouse IL10 receptor on mouse cells (whole blood, colon) (mouse, UniProt Q61727 17-575; Q61190 20-349)
T3 sequence (looked up) 1: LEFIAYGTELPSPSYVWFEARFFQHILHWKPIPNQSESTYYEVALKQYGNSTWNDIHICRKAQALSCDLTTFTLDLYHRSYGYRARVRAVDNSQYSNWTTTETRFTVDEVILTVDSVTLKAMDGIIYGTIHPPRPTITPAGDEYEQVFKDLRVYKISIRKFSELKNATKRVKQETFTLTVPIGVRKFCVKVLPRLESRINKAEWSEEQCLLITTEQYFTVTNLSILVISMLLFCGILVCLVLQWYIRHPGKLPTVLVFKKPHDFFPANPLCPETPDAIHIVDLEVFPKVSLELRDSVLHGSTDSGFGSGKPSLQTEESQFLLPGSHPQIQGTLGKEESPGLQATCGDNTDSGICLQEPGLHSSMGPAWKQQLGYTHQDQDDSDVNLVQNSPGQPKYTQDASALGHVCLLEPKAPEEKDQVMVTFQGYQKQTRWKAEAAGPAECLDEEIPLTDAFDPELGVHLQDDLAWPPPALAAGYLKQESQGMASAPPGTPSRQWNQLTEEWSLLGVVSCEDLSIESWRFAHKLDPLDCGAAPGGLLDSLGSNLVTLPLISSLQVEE
T3 sequence (looked up) 2: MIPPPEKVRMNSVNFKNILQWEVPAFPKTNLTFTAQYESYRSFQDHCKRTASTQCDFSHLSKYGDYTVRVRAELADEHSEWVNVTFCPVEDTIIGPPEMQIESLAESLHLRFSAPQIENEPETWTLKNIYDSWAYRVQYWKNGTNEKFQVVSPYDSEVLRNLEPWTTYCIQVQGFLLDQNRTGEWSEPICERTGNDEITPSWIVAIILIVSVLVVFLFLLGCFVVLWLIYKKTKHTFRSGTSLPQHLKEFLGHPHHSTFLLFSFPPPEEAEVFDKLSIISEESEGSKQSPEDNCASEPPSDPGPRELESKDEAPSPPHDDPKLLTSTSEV

B1: IgGIL10M13 (antibody)
heavy: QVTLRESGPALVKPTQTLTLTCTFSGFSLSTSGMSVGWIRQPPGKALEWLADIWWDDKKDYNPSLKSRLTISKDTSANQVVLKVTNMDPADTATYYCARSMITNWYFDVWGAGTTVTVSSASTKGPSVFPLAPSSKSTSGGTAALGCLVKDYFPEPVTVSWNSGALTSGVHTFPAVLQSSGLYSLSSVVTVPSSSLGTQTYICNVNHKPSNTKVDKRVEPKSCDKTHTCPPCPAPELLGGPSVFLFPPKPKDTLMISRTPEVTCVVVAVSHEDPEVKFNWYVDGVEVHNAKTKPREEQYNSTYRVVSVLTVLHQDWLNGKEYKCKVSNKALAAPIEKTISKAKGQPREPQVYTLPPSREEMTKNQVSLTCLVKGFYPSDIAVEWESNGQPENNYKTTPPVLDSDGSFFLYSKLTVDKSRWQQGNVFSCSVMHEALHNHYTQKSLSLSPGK
light: DIQMTQSPSTLSASVGDRVTITCKAQLSSPGQGTQSENSCTHFPGNLPNMLRDLRDAFSRVKTFFQMKDQLDNLLLKESLLEDFKGYLGCQALSEMIQFYLEEVMPQAENQDPDIKAHVNSLGENLKTLRLRLRRCHRFLPCENGGGSGGKSKAVEQVKNAFNKLQEKGIYKAMSEFDIFINYIEAYMTMKIRNVGYMHWYQQKPGKAPKLLIYDTSKLASGVPSRFSGSGSGTAFTLTISSLQPDDFATYYCFQGSGYPFTFGGGTKLEIKRTVAAPSVFIFPPSDEQLKSGTASVVCLLNNFYPREAKVQWKVDNALQSGNSQESVTEQDSKDSTYSLSSTLTLSKADYEKHKVYACEVTHQGLSSPVTKSFNRGEC
IC50, inhibition of LPS-induced TNFα production, ex vivo human whole blood [1]: 0.0252 nM
IC50, inhibition of LPS-induced TNFα production, ex vivo cynomolgus whole blood [2]: 0.00667 nM
IC50, inhibition of LPS-induced TNFα production, ex vivo mouse whole blood [3]: 0.012 nM
